Measured values reported in the RNAGym collection of RNA variant scans (doi:10.1073/pnas.2313332121).
Fewer inactive variants are shown than the library holds.

B1: TPR 5TU (parent)
chain: GGAUCUUCUCGAUCUAACAAAAAAGACAAAUCUGCCACAAAGCUUGAGAGCAUCUUCGGAUGCAGAGGCGGCAGCCUUCGGUGGCGCGAUAGCGCCAACGUUCUCAACUAUGACACGCAAAACGCGUGCUCCGUUGAAUGGAGUUUAUCAUG

Variants of: B1
Test: polymerase ribozyme fitness, log enrichment relative to wild type (log ratio); higher = more active; in vitro selection for triplet polymerase activity
Outline: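 Mutant libraries for each subunit of a heterodimeric triplet polymerase ribozyme were made by PCR and then transcribed. Each library underwent one round of in vitro selection in triplicate: annealing with a biotinylated primer, the partner subunit and triplets, frozen incubation at −7 °C, gel excision of extended constructs, streptavidin-bead capture and RT-PCR. Input and output libraries were Illumina-sequenced, and only genotypes with ≥10 input reads and ≥1 read per output were kept. Fitness is the logarithm, base 2, of genotype enrichment over wild-type enrichment, computed from inverse-variance-weighted replicate averages.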

Compared with C10U U15A A23U C32A C51U U55G U111G, G25U G48A G84A C96G is higher in “polymerase ribozyme fitness (log ratio)” value: no more than -4.2 for the first, -4.04 for the second.

Going from C85G A106C G141C to A21C A22U G86U U102C C116U A122G A138U, the “polymerase ribozyme fitness (log ratio)” value falls from -3.91 to no more than -4.2.

Compared with A20G A23C U144G, A37U G58A G59C A121U is higher in “polymerase ribozyme fitness (log ratio)” value: no more than -4.2 for the first, -0.167 for the second.

Going from U31G C95A to A47G A52C A97U, the “polymerase ribozyme fitness (log ratio)” value falls from 0.165 to -1.2.

U15G U56G U77C C87G G94A U104G A106U C123U and A49U A73U C75A cannot be ordered by “polymerase ribozyme fitness (log ratio)” value: no more than -4.2 for the first, no more than -4.2 for the second.

First: A39U A41C G80C G84U A142C C149A
Second: C35U G136A
The “polymerase ribozyme fitness (log ratio)” value of the first is lower: no more than -4.2 for the first, 0.0897 for the second.

Compared with C14G G48C A49G U53A G92U C93U A107U, C35A A37G U56A U61A is higher in “polymerase ribozyme fitness (log ratio)” value: no more than -4.2 for the first, -3.7 for the second.

C35G G62C G67C C85G C131A A147U and U9C A21U G48A A91U C99U cannot be ordered by “polymerase ribozyme fitness (log ratio)” value: no more than -4.2 for the first, no more than -4.2 for the second.

A60G U134A and A73G A142C are within 0.2 log units of each other in “polymerase ribozyme fitness (log ratio)” value: -1.8 for the first, -1.76 for the second.

First: C35U G46U C96U
Second: G11U C32U C93G A107G
The “polymerase ribozyme fitness (log ratio)” value of the first is higher: -1.23 for the first, no more than -4.2 for the second.

Compared with U4G U33G C75A C87G U109A A113U G117U, A40G U56G C85A A115U U134C is higher in “polymerase ribozyme fitness (log ratio)” value: no more than -4.2 for the first, -4.09 for the second.

Going from C69U C72U to A37C C95G, the “polymerase ribozyme fitness (log ratio)” value falls from -1.99 to -2.69.

U4C A12G C14U A40G G50A G84U U145C and A3G U6A A39U G84U U134A U144C A150U cannot be ordered by “polymerase ribozyme fitness (log ratio)” value: no more than -4.2 for the first, no more than -4.2 for the second.

Compared with A16C A49U C85A G126U U139G, G83C G92A is lower in “polymerase ribozyme fitness (log ratio)” value: -3.47 for the first, no more than -4.2 for the second.

Compared with G88C A97C A110G, A41C G83C is higher in “polymerase ribozyme fitness (log ratio)” value: no more than -4.2 for the first, -0.571 for the second.

U45G C103A A150U and A19G A28U A40C A60C G71U C75A G86U cannot be ordered by “polymerase ribozyme fitness (log ratio)” value: no more than -4.2 for the first, no more than -4.2 for the second.

Going from C69A U104G to G83A C93U, the “polymerase ribozyme fitness (log ratio)” value rises from -3.09 to -1.36.

Going from G126A C129G to C96G U134G, the “polymerase ribozyme fitness (log ratio)” value rises from -3.97 to -1.64.

Compared with C36U U134G U148A, G88U C108A is lower in “polymerase ribozyme fitness (log ratio)” value: -4.04 for the first, no more than -4.2 for the second.

A39U G86U C114U A120U G140A and A19G A23U C57G G84U C93G G94C A122U A142C cannot be ordered by “polymerase ribozyme fitness (log ratio)” value: no more than -4.2 for the first, no more than -4.2 for the second.

Compared with A40U C125U G128C, A97U G140U is higher in “polymerase ribozyme fitness (log ratio)” value: no more than -4.2 for the first, -3.87 for the second.

A24U A28C U33A G59A G140U U144G U146G and A37C A40C G48C G74A G94A G126C G133A G136A A150U cannot be ordered by “polymerase ribozyme fitness (log ratio)” value: no more than -4.2 for the first, no more than -4.2 for the second.

Going from C35U G86U C95G to A40U G48C C69G C85U, the “polymerase ribozyme fitness (log ratio)” value rises from -3.9 to -1.48.

First: C35U G84C
Second: U45A U55A U61A C63A U77A C131A A150G U151A
The “polymerase ribozyme fitness (log ratio)” value of the first is higher: -1.94 for the first, no more than -4.2 for the second.

Compared with C10G U56A C57U C69U C95A C99U C108U A121U A147G, G92A G124C is higher in “polymerase ribozyme fitness (log ratio)” value: no more than -4.2 for the first, -3.03 for the second.

First: C5G U9C A97G G141C
Second: A23U C87A G133A
The “polymerase ribozyme fitness (log ratio)” value of the first is higher: -3.27 for the first, no more than -4.2 for the second.

U13A A19U A37C U45A A49C C51U C76U G94A G133U U134A G140U U148A and U82C C93G C116G C118U G140A A150C cannot be ordered by “polymerase ribozyme fitness (log ratio)” value: no more than -4.2 for the first, no more than -4.2 for the second.

C8G C14A A30C C69U C76G A98U U144G and G46U G88U cannot be ordered by “polymerase ribozyme fitness (log ratio)” value: no more than -4.2 for the first, no more than -4.2 for the second.

C35U A73U G88U C108G and A29C C87G G117A cannot be ordered by “polymerase ribozyme fitness (log ratio)” value: no more than -4.2 for the first, no more than -4.2 for the second.

Going from A28C G80C U82G G88C U130C to U55A C69U G136A, the “polymerase ribozyme fitness (log ratio)” value rises from no more than -4.2 to -3.04.

Going from A40C A122G to G50A U78G, the “polymerase ribozyme fitness (log ratio)” value falls from 0.759 to -4.06.

Going from C5G C85U A142U to A3U C51U U56G G58C G59A A73G, the “polymerase ribozyme fitness (log ratio)” value falls from -1.45 to -3.64.

C43G G83U A97U U104C C116U A137C and C10G U109C A137C cannot be ordered by “polymerase ribozyme fitness (log ratio)” value: no more than -4.2 for the first, no more than -4.2 for the second.

A22G C96U C114U A115U and U6G A12U A28C G65U U127G cannot be ordered by “polymerase ribozyme fitness (log ratio)” value: no more than -4.2 for the first, no more than -4.2 for the second.

First: A12G
Second: C5G C32U C96U A122G
The “polymerase ribozyme fitness (log ratio)” value of the first is higher: 0.116 for the first, -3.38 for the second.

A37C A41C U53G G59A G84A C103A U145A and C85A G133U cannot be ordered by “polymerase ribozyme fitness (log ratio)” value: no more than -4.2 for the first, no more than -4.2 for the second.

First: C93G C123U G141U
Second: C35U C36A U55G U127A
The “polymerase ribozyme fitness (log ratio)” value of the first is higher: -2.27 for the first, -3.9 for the second.

Compared with C32U U33G C38U C54U U77A A107U, C38G U56A G86U U130A is lower in “polymerase ribozyme fitness (log ratio)” value: -3.74 for the first, no more than -4.2 for the second.

C57U A64U C114U and A52C U56A G67C G84A U139G U144A cannot be ordered by “polymerase ribozyme fitness (log ratio)” value: no more than -4.2 for the first, no more than -4.2 for the second.

C8U C27A A29U A66U G67A A120U U134A and A12U U31G A40C A49C A60G C93U cannot be ordered by “polymerase ribozyme fitness (log ratio)” value: no more than -4.2 for the first, no more than -4.2 for the second.

Compared with U56G A150C, A30G G48U G86U C149U is lower in “polymerase ribozyme fitness (log ratio)” value: -3.51 for the first, no more than -4.2 for the second.

First: G80C G84C G133A G141C
Second: A40G G117A
The “polymerase ribozyme fitness (log ratio)” value of the first is lower: no more than -4.2 for the first, -3.18 for the second.
